Laboratory results from US11584938B2, “Plant EPSPS mutant containing L195P and S247G mutations and encoding gene and use thereof” (GEVOTO LLC, priority 2017, dated 2023).
Residue numbers refer to the chain shown, from its start.

B1: T5: wheat EPSPS mutant, SEQ ID NO: 24, mutations L216(195)P and S269(247)G (protein)
chain: MATSVAAPAAPAGAEEVVLQPIREISGAVQLPGSKSLSNRILLLSALSEGTTVVDNLLNSEDVHYMLEALEALGLSVEADKVAKRAVVVGCGGRFPVEKDAKEEVKLFLGNAGTAMRPLTAAVVAAGGNATYVLDGVPRMRERPIGDLVVGLQQLGADVDCFLGTNCPPVRINGKGGLPGGKVKLSGSISSQYLSSLLMAAPLALEDVEIEIIDKPISVPYVEMTLKLMEHFGVTAEHSDSWDRFYIKGGQKYKSPGNAYVEGDASSAGYFLAGAAITGGTVTVEGCGTTSLQGDVKFAEVLEMMGAKVTWTDTSVTVTGPPRQPFGRKHLKAVDVNMNKMPDVAMTLAVVALFADGPTAIRDVASWRVKETERMVAIRTELTKLGATVEEGPDYCIITPPEKLNITAIDTYDDHRMAMAFSLAACAEVPVTIRDPGCTRKTFPNYFDVLSTFVKN
B2: T6: wheat EPSPS mutant, SEQ ID NO: 26, mutations L216(195)P, S269(247)G and P118(101)S (protein)
chain: B1 chain with P118S
B3: R0: wild-type rice EPSPS, amino acid sequence SEQ ID NO: 28; control (protein, listed as Oryza sativa)
chain: MASNAAAAAAKAEEIVLQPIREISGAVQLPGSKSLSNRILLLSALSEGTTVVDNLLNSEDVHYMLEALKALGLSVEADKVAKRAVVVGCGGKFPVEKDAKEEVQLFLGNAGTAMRPLTAAVTAAGGNATYVLDGVPRMRERPIGDLVVGLKQLGADVDCFLGTECPPVRVKGIGGLPGGKVKLSGSISSQYLSALLMAAPLALGDVEIEIIDKLISIPYVEMTLRLMERFGVKAEHSDSWDRFYIKGGQKYKSPGNAYVEGDASSASYFLAGAAITGGTVTVQGCGTTSLQGDVKFAEVLEMMGAKVTWTDTSVTVTGPPREPYGKKHLKAVDVNMNKMPDVAMTLAVVALFADGPTAIRDVASWRVKETERMVAIRTELTKLGASVEEGPDYCIITPPEKLNITAIDTYDDHRMAMAFSLAACADVPVTIRDPGCTRKTFPNYFDVLSTFVRN
B4: R1: rice EPSPS mutant, SEQ ID NO: 30, mutation L214(195)P (protein)
chain: B3 chain with L214P

System: transgenic rice plants
Assay: glyphosate resistance of the EPSPS mutant in transgenic rice plants sprayed with Roundup 41% ammonium glyphosate
Format: in vivo, rice (Nipponbare)
Details: 1× dosage 1060 g/hectare glyphosate sprayed; recorded on 10th day
Outline: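 EPSPS mutant genes were cloned into pGVP1 and introduced into Nipponbare rice embryo-derived calluses via Agrobacterium EHA105 (OD 0.2, 10 min infection, 2–3 days co-culture at 25 °C in the dark). Calluses went through recovery, two 14-day screening rounds at 30 °C, two differentiation rounds and rooting to regenerate transgenic plants.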

Which results are given for B1?
%++&+++ (percentage of plant having medium and high glyphosate resistance to the total number of plants observed): 45.5%; number of plants denoted by + (low glyphosate resistance): 6; number of plants denoted by ++ (medium glyphosate resistance): 3; number of plants denoted by +++ (high glyphosate resistance): 7; number of plants denoted by − (no glyphosate resistance): 6

What does the source list for B2?
%++&+++ (percentage of plant having medium and high glyphosate resistance to the total number of plants observed): 85.9%; number of plants denoted by + (low glyphosate resistance): 7; number of plants denoted by ++ (medium glyphosate resistance): 15; number of plants denoted by +++ (high glyphosate resistance): 52; number of plants denoted by − (no glyphosate resistance): 4

For B3, which “%++&+++ (percentage of plant having medium and high glyphosate resistance to the total number of plants observed)” value is on record?
The value was 0.0%.

And the “number of plants denoted by + (low glyphosate resistance)” value (shortened to “number … (low glyphosate resistance)”)?
The value was 1.

What about the “number of plants denoted by ++ (medium glyphosate resistance)” value (from here on “number … (medium glyphosate resistance)”) of the same molecule?
The value was 0.

What about the “number of plants denoted by +++ (high glyphosate resistance)” value (“number of plants denoted by +++” for short) of the same molecule?
Its value is 0.

And the “number of plants denoted by − (no glyphosate resistance)” value (“number … (no glyphosate resistance)” below)?
Its value is 30.

How did the “%++&+++ (percentage of plant having medium and high glyphosate resistance to the total number of plants observed)” value turn out when B4 was run?
Its value is 63.2%.

And the “number … (low glyphosate resistance)” value?
Its value is 1.

What about the “number … (medium glyphosate resistance)” value of the same molecule?
Its value is 1.

What about the “number of plants denoted by +++” value of the same molecule?
Its value is 11.

And the “number … (no glyphosate resistance)” value?
Its value is 6.

Same assay, conditions: 1× glyphosate dosage

Which “glyphosate resistance / survival of the rice transformed by the EPSPS, in words” value (shortened to “glyphosate resistance / survival”) does the source give for B1 here?
Its value is “obviously superior to that of the rice seedlings transformed by T0”.

With B2 as the molecule, how does the “glyphosate resistance / survival” value read?
Its value is “had relatively high resistance to glyphosate”.

For B3, which “glyphosate resistance / survival” value is on record?
Its value is “had no resistance, one was seriously damaged, and all the others died”.

B4 was tested. Which “glyphosate resistance / survival” value did it give?
Its value is “obviously superior to that of the rice seedlings transformed by R0”.

Same assay, conditions: 2× dosage 2120 g/hectare sprayed to plants surviving 1×; recorded 10 days later

How did the “%++&+++ (percentage of plant having medium and high glyphosate resistance to the total number of plants observed)” value turn out when B1 was run?
The value was 84.6%.

What about the “number … (low glyphosate resistance)” value of the same molecule?
The value was 8.

And the “number … (medium glyphosate resistance)” value?
Its value is 4.

What about the “number of plants denoted by +++” value of the same molecule?
The value was 0.

And the “number … (no glyphosate resistance)” value?
Its value is 10.

How did the “%++&+++ (percentage of plant having medium and high glyphosate resistance to the total number of plants observed)” value turn out when B2 was run?
The value was 0.0%.

What about the “number … (low glyphosate resistance)” value of the same molecule?
The value was 4.

What about the “number … (medium glyphosate resistance)” value of the same molecule?
Its value is 25.

And the “number of plants denoted by +++” value?
Its value is 41.

And the “number … (no glyphosate resistance)” value?
Its value is 8.

How did the “%++&+++ (percentage of plant having medium and high glyphosate resistance to the total number of plants observed)” value turn out when B3 was run?
The value was 45.8%.

What about the “number … (low glyphosate resistance)” value of the same molecule?
The value was 0.

And the “number … (medium glyphosate resistance)” value?
The value was 0.

What about the “number of plants denoted by +++” value of the same molecule?
Its value is 0.

What about the “number … (no glyphosate resistance)” value of the same molecule?
Its value is 31.

Which “%++&+++ (percentage of plant having medium and high glyphosate resistance to the total number of plants observed)” value does the source give for B4 here?
Its value is 55.2%.

And the “number … (low glyphosate resistance)” value?
Its value is 3.

And the “number … (medium glyphosate resistance)” value?
The value was 10.

And the “number of plants denoted by +++” value?
Its value is 1.

And the “number … (no glyphosate resistance)” value?
The value was 10.

Same assay, conditions: 2× glyphosate dosage

How did the “glyphosate resistance / survival” value turn out when B1 was run?
Its value is “some of the transgenic rice seedlings transformed by T4, T1 and T5 still survived”.

Which “glyphosate resistance / survival” value does the source give for B4 here?
The value was “some of the transgenic rice seedlings transformed by R1 and R4 still survived”.

Same assay, conditions: 5× dosage 5300 g/hectare sprayed to plants surviving 2×; recorded 10 days later

Which “&++&+++ (percentage of plant having medium and high glyphosate resistance to the total number of plants observed)” value does the source give for B1 here?
The value was 18.2%.

What about the “number … (low glyphosate resistance)” value of the same molecule?
Its value is 5.

What about the “number … (medium glyphosate resistance)” value of the same molecule?
The value was 4.

And the “number of plants denoted by +++” value?
The value was 0.

What about the “number … (no glyphosate resistance)” value of the same molecule?
The value was 13.

B2 was tested. Which “&++&+++ (percentage of plant having medium and high glyphosate resistance to the total number of plants observed)” value did it give?
Its value is 76.9%.

What about the “number … (low glyphosate resistance)” value of the same molecule?
Its value is 9.

What about the “number … (medium glyphosate resistance)” value of the same molecule?
Its value is 37.

And the “number of plants denoted by +++” value?
The value was 23.

And the “number … (no glyphosate resistance)” value?
The value was 9.

With B3 as the molecule, how does the “&++&+++ (percentage of plant having medium and high glyphosate resistance to the total number of plants observed)” value read?
Its value is 0.0%.

And the “number … (low glyphosate resistance)” value?
Its value is 0.

What about the “number … (medium glyphosate resistance)” value of the same molecule?
The value was 0.

And the “number of plants denoted by +++” value?
Its value is 0.

What about the “number … (no glyphosate resistance)” value of the same molecule?
Its value is 31.

What does the source list for B4?
&++&+++ (percentage of plant having medium and high glyphosate resistance to the total number of plants observed): 4.2%; number of plants denoted by + (low glyphosate resistance): 9; number of plants denoted by ++ (medium glyphosate resistance): 1; number of plants denoted by +++ (high glyphosate resistance): 0; number of plants denoted by − (no glyphosate resistance): 14

Same assay, conditions: 5× glyphosate dosage

How did the “glyphosate resistance / survival” value turn out when B1 was run?
Its value is “some of the transgenic rice seedlings transformed by T4, T1 and T5 still survived”.

B4 was tested. Which “glyphosate resistance / survival” value did it give?
The value was “some of the transgenic rice seedlings transformed by R1 and R4 still survived”.

Same assay, conditions: 20× dosage 21200 g/hectare sprayed to plants surviving 5×; recorded 10 days later

For B1, which “&++&+++ (percentage of plant having medium and high glyphosate resistance to the total number of plants observed)” value is on record?
Its value is 13.6%.

And the “number … (low glyphosate resistance)” value?
Its value is 3.

And the “number … (medium glyphosate resistance)” value?
The value was 3.

What about the “number of plants denoted by +++” value of the same molecule?
Its value is 0.

And the “number … (no glyphosate resistance)” value?
Its value is 16.

With B2 as the molecule, how does the “&++&+++ (percentage of plant having medium and high glyphosate resistance to the total number of plants observed)” value read?
The value was 71.8%.

What about the “number … (low glyphosate resistance)” value of the same molecule?
The value was 7.

What about the “number … (medium glyphosate resistance)” value of the same molecule?
Its value is 56.

And the “number of plants denoted by +++” value?
The value was 0.

And the “number … (no glyphosate resistance)” value?
The value was 15.

With B3 as the molecule, how does the “&++&+++ (percentage of plant having medium and high glyphosate resistance to the total number of plants observed)” value read?
The value was 0.0%.

What about the “number … (low glyphosate resistance)” value of the same molecule?
Its value is 0.

And the “number … (medium glyphosate resistance)” value?
Its value is 0.

And the “number of plants denoted by +++” value?
The value was 0.

And the “number … (no glyphosate resistance)” value?
Its value is 31.

Which results are given for B4?
&++&+++ (percentage of plant having medium and high glyphosate resistance to the total number of plants observed): 0.0%; number of plants denoted by + (low glyphosate resistance): 4; number of plants denoted by ++ (medium glyphosate resistance): 0; number of plants denoted by +++ (high glyphosate resistance): 0; number of plants denoted by − (no glyphosate resistance): 20

Same assay, conditions: 20× glyphosate dosage

With B4 as the molecule, how does the “glyphosate resistance / survival” value read?
The value was “some of the transgenic rice seedlings transformed by R1 and R4 still survived”.
